Assay results from PMC6786517.

Target: F-actin
Test: co-sedimentation; F-actin co-sedimentation of HA-cortactin WT, 8KQ and 8KR; gray values of cortactin in pellets and supernatants

Row | ratio of gray value of cortactin in pellets and supernatants | Substance
1 | 0.781 | HA-tagged acetylation-mimetic cortactin (8KQ) (from UniProt Q60598 1-546) (natural protein)
2 | 1.03 | HA-tagged cortactin (from UniProt Q60598 1-546) (natural protein)
3 | 1.59 | HA-tagged non-acetylation-mimetic cortactin (8KR) (from UniProt Q60598 1-546) (natural protein)
